This assay has as its target T1, mouse Fc P-Selectin (CD62P-Fc Chimera, from R&D Systems) (mouse, UniProt Q01102 42-709).
T1 construct: Bought reagent, coated in the flow chamber; also called mouse P-selectin; not shown: Fc part of the commercial chimera
T1 sequence (looked up): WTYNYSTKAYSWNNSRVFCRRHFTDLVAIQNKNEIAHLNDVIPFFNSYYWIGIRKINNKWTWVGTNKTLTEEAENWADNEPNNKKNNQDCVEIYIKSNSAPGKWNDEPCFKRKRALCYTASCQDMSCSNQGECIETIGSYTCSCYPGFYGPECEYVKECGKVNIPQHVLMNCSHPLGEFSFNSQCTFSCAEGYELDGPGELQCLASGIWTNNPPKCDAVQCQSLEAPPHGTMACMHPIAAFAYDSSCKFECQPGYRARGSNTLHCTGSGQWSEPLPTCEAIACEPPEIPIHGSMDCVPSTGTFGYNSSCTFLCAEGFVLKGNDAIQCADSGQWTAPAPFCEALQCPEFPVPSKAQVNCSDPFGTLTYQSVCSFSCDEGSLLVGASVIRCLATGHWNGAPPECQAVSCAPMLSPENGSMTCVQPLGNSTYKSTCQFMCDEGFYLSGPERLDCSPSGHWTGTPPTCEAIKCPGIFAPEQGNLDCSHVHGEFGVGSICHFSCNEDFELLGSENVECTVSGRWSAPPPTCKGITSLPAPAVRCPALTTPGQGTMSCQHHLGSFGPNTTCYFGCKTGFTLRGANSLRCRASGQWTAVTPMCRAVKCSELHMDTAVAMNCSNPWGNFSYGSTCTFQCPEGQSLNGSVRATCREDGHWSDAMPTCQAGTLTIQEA
As to the kind of experiment: flow chamber adhesion of microvesicles on a mouse P-selectin-Fc coating. Here is the method:
To test the effective binding, targeted microvesicles prepared according to comparative example 4 were injected in a flow chamber set up comprising a coating of mouse Fc P-Selectin (CD62P-Fc Chimera, from R&D Systems (Minneapolis, Minn., USA). Microvesicles (at equivalent number of 80×10⁶/400 μL TBS++) were injected through the flow chamber (FCS2, Bioptech, USA) in a bolus fashion and their adhesion onto the mouse P-selectin coating layer was assessed over a period of 10 min at a flow rate of 1.0 mL/min (shear rate of 714 s⁻¹) in the presence of 50% human plasma in PBS (v:v, Biomeda collected on citrate, ref. ES1020P, Stehelin & Cie AG). A quantitative analysis of microvesicles accumulation was performed by counting the number of microvesicles adhering in the observed area at 2 min intervals over the total 10 min infusion, using the image processing program Analysis FIVE (SIS, Germany). After 10 min, five pictures were taken randomly and the number of bound microvesicles was measured and expressed as the number of bound bubbles at 10 min (NBB). Each observed area was 183×137 μm, as measured with the aid of a stage micrometer. Measurement was performed between the middle and the exit of the chamber.
Similarly, suspensions of targeted microvesicles prepared according to example 6 (Fr-1 targeting ligand) and according to example 8 (monomeric FR-1) were injected in a flow chamber as described above, and their binding activity determined according to the above procedure.

B1: rPSGL-Ig (glycosylated SEQ ID NO: 4), thiolated and bound to DSPE-PEG-maleimide on gas-filled microvesicles (Example 4) (Fc fusion)
chain: QATEYEYLDYDFLPETEPPEMLRNSTDTTPLTGPGTPESTTVEPAARPHTCPPCPAPEALGAPSVFLFPPKPKDTLMISRTPEVTCVVVDVSHEDPEVKFNWYVDGVEVHNAKTKPREEQYNSTYRVVSVLTVLHQDWLNGKEYKCKVSNKALPVPIEKTISKAKGQPREPQVYTLPPSREEMTKNQVSLTCLVKGFYPSDIAVEWESNGQPENNYKTTPPVLDSDGSFFLYSKLTVDKSRWQQGNVFSCSVMHEALHNHYTQKSLSLSPGK
modifications: glycosylated; amino groups thiolated with Traut reagent (2-iminothiolane) and coupled to DSPE-PEG-maleimide of the microvesicle envelope
notes: also called recombinant PSGL-Ig; dimPSGL-1
On to B1, for which the binding result is given as “binds”.

B2: Fr-1, purified fragment of rPSGL-Ig (SEQ ID NO:3), dimeric, thiolated and bound to DSPE-PEG-maleimide on gas-filled microvesicles (Example 6) (other)
chain: QATEYEYLDYDFLPETEPPEMLRNSTDTTPLTGPGTPESTTVEPAARPHTCPPCPAPEALGAPSVFLFPPK
modifications: glycosylated (fragment of glycosylated rPSGL-Ig); thiolated with SATA and deacetylated, then coupled to DSPE-PEG-maleimide of the microvesicle envelope
notes: Disulfide-linked homodimer, about 32 kDa by MALDI-ToF; also called dimeric Fr-1
B2: the binding result is given as “binds”.

B3: Monomeric Fr-1 (Fr-1 of SEQ ID NO:3 reduced with TCEP) bound to DSPE-PEG-maleimide on gas-filled microvesicles (Example 8) (other)
chain: QATEYEYLDYDFLPETEPPEMLRNSTDTTPLTGPGTPESTTVEPAARPHTCPPCPAPEALGAPSVFLFPPK
modifications: glycosylated (fragment of glycosylated rPSGL-Ig); disulfide bonds reduced with TCEP, free cysteine thiols coupled to DSPE-PEG-maleimide of the microvesicle envelope
notes: also called reduced monomeric Fr-1
Consider B3, for which the binding result was “binds”.

For the origin of these results see US20130156706A1 (BRACCO SUISSE S A, published 2013).
